Assay results from patent publication US20190263882A1 (Scripps Research, published 2019).

Columns and labels:
relaxin receptor (LGR7) = biological target: T1, relaxin receptor (LGR7); assay: cell-based or functional assay
T1 sequence (Q9HBX9 whole entry, species assumed, looked up): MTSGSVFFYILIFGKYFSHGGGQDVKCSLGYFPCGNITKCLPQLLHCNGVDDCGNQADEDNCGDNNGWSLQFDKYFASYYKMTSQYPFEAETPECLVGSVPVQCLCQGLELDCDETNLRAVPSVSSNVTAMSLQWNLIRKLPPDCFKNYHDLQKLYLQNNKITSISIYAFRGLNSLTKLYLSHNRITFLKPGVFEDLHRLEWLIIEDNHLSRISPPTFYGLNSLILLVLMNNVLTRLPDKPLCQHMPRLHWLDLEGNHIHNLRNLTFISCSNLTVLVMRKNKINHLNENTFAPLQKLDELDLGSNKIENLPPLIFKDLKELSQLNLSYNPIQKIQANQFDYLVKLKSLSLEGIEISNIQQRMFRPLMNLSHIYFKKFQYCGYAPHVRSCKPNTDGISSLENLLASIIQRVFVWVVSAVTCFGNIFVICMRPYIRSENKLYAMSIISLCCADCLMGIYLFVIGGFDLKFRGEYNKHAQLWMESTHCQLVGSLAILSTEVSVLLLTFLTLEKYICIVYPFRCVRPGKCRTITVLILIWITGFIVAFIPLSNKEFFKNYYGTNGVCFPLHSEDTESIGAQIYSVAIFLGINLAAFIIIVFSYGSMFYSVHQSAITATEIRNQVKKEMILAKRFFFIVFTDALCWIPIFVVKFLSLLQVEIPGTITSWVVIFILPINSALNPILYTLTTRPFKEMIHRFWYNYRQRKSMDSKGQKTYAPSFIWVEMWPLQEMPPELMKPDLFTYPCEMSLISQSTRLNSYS

RSV F protein [1] = biological target: T2, RSV F protein (UniProt P03420 26-524); assay: ELISA, 100 ng/well RSV F protein coated, HRP anti-human IgG (Fc specific), QuantaBlu fluorescence (10 min)
T2 sequence (P03420 26-524): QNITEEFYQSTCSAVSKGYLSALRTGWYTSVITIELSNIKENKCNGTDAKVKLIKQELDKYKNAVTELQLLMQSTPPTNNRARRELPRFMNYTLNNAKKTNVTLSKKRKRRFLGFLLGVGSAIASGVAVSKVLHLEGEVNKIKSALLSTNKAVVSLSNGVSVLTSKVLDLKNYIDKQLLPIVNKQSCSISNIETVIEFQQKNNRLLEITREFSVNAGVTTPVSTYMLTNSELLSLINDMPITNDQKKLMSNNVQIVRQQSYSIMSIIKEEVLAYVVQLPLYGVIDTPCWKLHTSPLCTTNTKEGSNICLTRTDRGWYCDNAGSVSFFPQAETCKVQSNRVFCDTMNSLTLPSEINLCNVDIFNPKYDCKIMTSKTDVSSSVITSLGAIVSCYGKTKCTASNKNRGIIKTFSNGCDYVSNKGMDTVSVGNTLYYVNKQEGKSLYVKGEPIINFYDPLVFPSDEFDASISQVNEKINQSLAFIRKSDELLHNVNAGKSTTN
Method: Optimized palivizumab-relaxin fusion protein antibodies were tested for binding to RSV by ELISA assay. 100 ng/well RSV F protein was coated on 96-well plate in PBS 4° C. overnight. The plate was blocked with 2% BSA/PBS at room temperature for 1 hr, then washed twice with 200 μL PBS. The fusion antibodies were incubated at various concentrations (as indicated in FIG. 4) in 2% BSA/PBS at room temperature for 1 hr. Plates were washed with PBS (0.025% Tween-20 in PBS) four times and washed with PBS one time. […] Binding was quantified using Spectramax fluorescence plate reader with excitation at 325 nm and emission at 420 nm. Binding Kd values were determined (Table 14).

RSV F protein [2] = biological target: T2, RSV F protein; assay: plate binding assay, RSV F protein coated, anti-human IgG (Fc specific) detection, fluorescence read at 25 min
RSV F protein [3] = biological target: T2, RSV F protein; assay: plate binding assay, RSV F protein coated, anti-human IgG (Fc specific) detection, fluorescence read at 50 min

B1: RLX304 (antibody, human IgG1, kappa)
heavy: DSWMEEVIKLCGRELVRAQIAICGMSTWSGGGGSGGGGQLYSALANKCCHVGCTKRSLARFCGGGGSGGGGSGGGGSGQVTLRESGPALVKPTQTLTLTCTFSGFSLSTSGMSVGWIRQPPGKALEWLADIWWDDKKDYNPSLKSRLTISKDTSKNQVVLKVTNMDPADTATYYCARSMITNAYFDVWGAGTTVTVSSASTKGPSVFPLAPSSKSTSGGTAALGCLVKDYFPEPVTVSWNSGALTSGVHTFPAVLQSSGLYSLSSVVTVPSSSLGTQTYICNVNHKPSNTKVDKKVEPKSCDKTHTCPPCPAPPVAGPSVFLFPPKPKDTLMISRTPEVTCVVVDVSHEDPEVKFNWYVDGVEVHNAKTKPREEQYNSTYRVVSVLTVLHQDWLNGKEYKCKVSNKGLPSSIEKTISKAKGQPREPQVYTLPPSRDELTKNQVSLTCLVKGFYPSDIAVEWESNGQPENNYKTTPPVLDSDGSFFLYSKLTVDKSRWQQGNVFSCSVMHEALHNHYTQKSLSLSPGK
light: DIQMTQSPSTLSASVGDRVTITCKCQLSVGYMHWYQQKPGKAPKLLIYDTSKLASGVPSRFSGSGSGTAFTLTISSLQPDDFATYYCFQGSGYPFTFGGGTKLEIKRTVAAPSVFIFPPSDEQLKSGTASVVCLLNNFYPREAKVQWKVDNALQSGNSQESVTEQDSKDSTYSLSSTLTLSKADYEKHKVYACEVTHQGLSSPVTKSFNRGEC
Relaxin receptor (LGR7)
  EC50, CRE-luciferase reporter assay: 0.078 nM
RSV F protein [1]
  Kd: 38.2 nM

B2: Palivizumab null (antibody, human IgG1, kappa)
heavy: QVTLRESGPALVKPTQTLTLTCTFSGFSLSTSGMSVGWIRQPPGKALEWLADIWWDDKKDYNPSLKSRLTISKDTSKNQVVLKVTNMDPADTATYYCARSMITNWYFDVWGAGTTVTVSSASTKGPSVFPLAPSSKSTSGGTAALGCLVKDYFPEPVTVSWNSGALTSGVHTFPAVLQSSGLYSLSSVVTVPSSSLGTQTYICNVNHKPSNTKVDKKVEPKSCDKTHTCPPCPAPPVAGPSVFLFPPKPKDTLMISRTPEVTCVVVDVSHEDPEVKFNWYVDGVEVHNAKTKPREEQYNSTYRVVSVLTVLHQDWLNGKEYKCKVSNKGLPSSIEKTISKAKGQPREPQVYTLPPSRDELTKNQVSLTCLVKGFYPSDIAVEWESNGQPENNYKTTPPVLDSDGSFFLYSKLTVDKSRWQQGNVFSCSVMHEALHNHYTQKSLSLSPGK
light: DIQMTQSPSTLSASVGDRVTITCKCQLSVGYMHWYQQKPGKAPKLLIYDTSKLASGVPSRFSGSGSGTEFTLTISSLQPDDFATYYCFQGSGYPFTFGGGTKLEIKRTVAAPSVFIFPPSDEQLKSGTASVVCLLNNFYPREAKVQWKVDNALQSGNSQESVTEQDSKDSTYSLSSTLTLSKADYEKHKVYACEVTHQGLSSPVTKSFNRGEC
notes: also called null palivizumab antibody
RSV F protein [2]
  Kd: 0.8 nM
RSV F protein [3]
  Kd: 0.49 nM

B3: RLX300 (no mutations) (antibody, human IgG1, kappa)
heavy: DSWMEEVIKLCGRELVRAQIAICGMSTWSGGGGSGGGGQLYSALANKCCHVGCTKRSLARFCGGGGSGGGGSGGGGSGQVTLRESGPALVKPTQTLTLTCTFSGFSLSTSGMSVGWIRQPPGKALEWLADIWWDDKKDYNPSLKSRLTISKDTSKNQVVLKVTNMDPADTATYYCARSMITNWYFDVWGAGTTVTVSSASTKGPSVFPLAPSSKSTSGGTAALGCLVKDYFPEPVTVSWNSGALTSGVHTFPAVLQSSGLYSLSSVVTVPSSSLGTQTYICNVNHKPSNTKVDKKVEPKSCDKTHTCPPCPAPPVAGPSVFLFPPKPKDTLMISRTPEVTCVVVDVSHEDPEVKFNWYVDGVEVHNAKTKPREEQYNSTYRVVSVLTVLHQDWLNGKEYKCKVSNKGLPSSIEKTISKAKGQPREPQVYTLPPSRDELTKNQVSLTCLVKGFYPSDIAVEWESNGQPENNYKTTPPVLDSDGSFFLYSKLTVDKSRWQQGNVFSCSVMHEALHNHYTQKSLSLSPGK
light: DIQMTQSPSTLSASVGDRVTITCKCQLSVGYMHWYQQKPGKAPKLLIYDTSKLASGVPSRFSGSGSGTAFTLTISSLQPDDFATYYCFQGSGYPFTFGGGTKLEIKRTVAAPSVFIFPPSDEQLKSGTASVVCLLNNFYPREAKVQWKVDNALQSGNSQESVTEQDSKDSTYSLSSTLTLSKADYEKHKVYACEVTHQGLSSPVTKSFNRGEC
notes: also called SC3.s
RSV F protein [1]
  Kd: 0.301 nM

B4: RLX303 (antibody)
heavy: DSWMEEVIKLCGRELVRAQIAICGMSTWSGGGGSGGGGQLYSALANKCCHVGCTKRSLARFCGGGGSGGGGSGGGGSGQVTLRESGPALVKPTQTLTLTCTFSGFSLSTSGMSVGWIRQPPGKALEWLADIWWDDKKDYNPSLKSRLTISKDTSKNQVVLKVTNMDPADTATYYCARSMITFGGFDVWGAGTTVTVSSASTKGPSVFPLAPSSKSTSGGTAALGCLVKDYFPEPVTVSWNSGALTSGVHTFPAVLQSSGLYSLSSVVTVPSSSLGTQTYICNVNHKPSNTKVDKKVEPKSCDKTHTCPPCPAPPVAGPSVFLFPPKPKDTLMISRTPEVTCVVVDVSHEDPEVKFNWYVDGVEVHNAKTKPREEQYNSTYRVVSVLTVLHQDWLNGKEYKCKVSNKGLPSSIEKTISKAKGQPREPQVYTLPPSRDELTKNQVSLTCLVKGFYPSDIAVEWESNGQPENNYKTTPPVLDSDGSFFLYSKLTVDKSRWQQGNVFSCSVMHEALHNHYTQKSLSLSPGK
light: DIQMTQSPSTLSASVGDRVTITCKCQLSVGYMHWYQQKPGKAPKLLIYDTSKLASGVPSRFSGSGSGTAFTLTISSLQPDDFATYYCFQGNGYPFTFGGGTKLEIKRTVAAPSVFIFPPSDEQLKSGTASVVCLLNNFYPREAKVQWKVDNALQSGNSQESVTEQDSKDSTYSLSSTLTLSKADYEKHKVYACEVTHQGLSSPVTKSFNRGEC
RSV F protein [1]
  Kd: 52.1 nM

B5: RLX301 (antibody, human IgG1, kappa)
heavy: DSWMEEVIKLCGRELVRAQIAICGMSTWSGGGGSGGGGQLYSALANKCCHVGCTKRSLARFCGGGGSGGGGSGGGGSGQVTLRESGPALVKPTQTLTLTCTFSGFSLSTSGMSVGWIRQPPGKALEWLADIWWDDKKDYNPSLKSRLTISKDTSKNQVVLKVTNMDPADTATYYCARSMITFGGFDVWGAGTTVTVSSASTKGPSVFPLAPSSKSTSGGTAALGCLVKDYFPEPVTVSWNSGALTSGVHTFPAVLQSSGLYSLSSVVTVPSSSLGTQTYICNVNHKPSNTKVDKKVEPKSCDKTHTCPPCPAPPVAGPSVFLFPPKPKDTLMISRTPEVTCVVVDVSHEDPEVKFNWYVDGVEVHNAKTKPREEQYNSTYRVVSVLTVLHQDWLNGKEYKCKVSNKGLPSSIEKTISKAKGQPREPQVYTLPPSRDELTKNQVSLTCLVKGFYPSDIAVEWESNGQPENNYKTTPPVLDSDGSFFLYSKLTVDKSRWQQGNVFSCSVMHEALHNHYTQKSLSLSPGK
light: DIQMTQSPSTLSASVGDRVTITCKCQLSVGYMHWYQQKPGKAPKLLIYDTSKLASGVPSRFSGSGSGTAFTLTISSLQPDDFATYYCFQGSGYPFTFGGGTKLEIKRTVAAPSVFIFPPSDEQLKSGTASVVCLLNNFYPREAKVQWKVDNALQSGNSQESVTEQDSKDSTYSLSSTLTLSKADYEKHKVYACEVTHQGLSSPVTKSFNRGEC
Relaxin receptor (LGR7)
  EC50, CRE-luciferase reporter assay: 0.072 nM
RSV F protein [1]
  Kd: 79.3 nM

B6: RLX306 (antibody)
heavy: DSWMEEVIKLCGRELVRAQIAICGMSTWSGGGGSGGGGQLYSALANKCCHVGCTKRSLARFCGGGGSGGGGSGGGGSGQVTLRESGPALVKPTQTLTLTCTFSGFSLSTSGMSVGWIRQPPGKALEWLADIWWDDKKDYNPSLKSRLTISKDTSKNQVVLKVTNMDPADTATYYCARSMITNAYFDVWGAGTTVTVSSASTKGPSVFPLAPSSKSTSGGTAALGCLVKDYFPEPVTVSWNSGALTSGVHTFPAVLQSSGLYSLSSVVTVPSSSLGTQTYICNVNHKPSNTKVDKKVEPKSCDKTHTCPPCPAPPVAGPSVFLFPPKPKDTLMISRTPEVTCVVVDVSHEDPEVKFNWYVDGVEVHNAKTKPREEQYNSTYRVVSVLTVLHQDWLNGKEYKCKVSNKGLPSSIEKTISKAKGQPREPQVYTLPPSRDELTKNQVSLTCLVKGFYPSDIAVEWESNGQPENNYKTTPPVLDSDGSFFLYSKLTVDKSRWQQGNVFSCSVMHEALHNHYTQKSLSLSPGK
light: DIQMTQSPSTLSASVGDRVTITCKCQLSVGYMHWYQQKPGKAPKLLIYDTSKLASGVPSRFSGSGSGTAFTLTISSLQPDDFATYYCFQGNGYPFTFGGGTKLEIKRTVAAPSVFIFPPSDEQLKSGTASVVCLLNNFYPREAKVQWKVDNALQSGNSQESVTEQDSKDSTYSLSSTLTLSKADYEKHKVYACEVTHQGLSSPVTKSFNRGEC
RSV F protein [1]
  Kd: 82.7 nM

B7: RLX305 (antibody)
heavy: DSWMEEVIKLCGRELVRAQIAICGMSTWSGGGGSGGGGQLYSALANKCCHVGCTKRSLARFCGGGGSGGGGSGGGGSGQVTLRESGPALVKPTQTLTLTCTFSGFSLSTSGMSVGWIRQPPGKALEWLADIWWDDKKDYNPSLKSRLTISKDTSKNQVVLKVTNMDPADTATYYCARSMITNAYFDVWGAGTTVTVSSASTKGPSVFPLAPSSKSTSGGTAALGCLVKDYFPEPVTVSWNSGALTSGVHTFPAVLQSSGLYSLSSVVTVPSSSLGTQTYICNVNHKPSNTKVDKKVEPKSCDKTHTCPPCPAPPVAGPSVFLFPPKPKDTLMISRTPEVTCVVVDVSHEDPEVKFNWYVDGVEVHNAKTKPREEQYNSTYRVVSVLTVLHQDWLNGKEYKCKVSNKGLPSSIEKTISKAKGQPREPQVYTLPPSRDELTKNQVSLTCLVKGFYPSDIAVEWESNGQPENNYKTTPPVLDSDGSFFLYSKLTVDKSRWQQGNVFSCSVMHEALHNHYTQKSLSLSPGK
light: DIQMTQSPSTLSASVGDRVTITCKCQLSVGYMHWYQQKPGKAPKLLIYDTSKLASGVPSRFSGSGSGTAFTLTISSLQPDDFATYYCFQYSGYPFTFGGGTKLEIKRTVAAPSVFIFPPSDEQLKSGTASVVCLLNNFYPREAKVQWKVDNALQSGNSQESVTEQDSKDSTYSLSSTLTLSKADYEKHKVYACEVTHQGLSSPVTKSFNRGEC
RSV F protein [1]
  Kd: 75.2 nM
